Measured values published in patent US20100278838A1, “EPHA2 MONOCLONAL ANTIBODIES AND METHODS OF USE THEREOF” (MEDIMMUNE, LLC, priority 2002, published 2010).

Key:
[1] = system: EphA2 on transformed MDA-MB-231 cells; assay: Flow cytometry of EA2 binding, transformed cells with or without EGTA; assay type: cell-based; details: 10 μg/ml EA2; 4 mM EGTA 10-15 minutes on ice
Procedure: (A, B) Non-transformed MCF-10A cells were labeled with EA2 at 4° C. either before (A) or after (B) treatment with EGTA and prior to fixation and immunolabeling with fluorophore-conjugated anti-mouse IgG. (C, D) Non-transformed MCF-10A (C) or transformed MDA-MB-231 (D) cells were labeled with EA2 either before (middle) or after (top) treatment with EGTA. Control cells were incubated with secondary antibody alone (bottom). The amount of EA2-EphA2 binding was measured using flow cytometry.
An equivalent experiment was performed using MCF-10A or MDA-MB-231 cells. The amount of EA2 binding to EphA2 was measured using flow cytometry (FIGS. 17C-17D). Cells were either treated by incubation in 4 mM EGTA for 10-15 minutes on ice (top panel) or were not treated with EGTA (middle panel) before incubation with 10 μg/ml EA2. Cells were then fixed with 3% formalin and labeled with fluorophore-labeled donkey anti-mouse IgG. Control cells were incubated only with secondary antibody (fluorophore-labeled donkey anti-mouse IgG) in the absence of primary antibody (EA2) (bottom panel). The samples were then evaluated using flow cytometry (Becton Dickinson FACStar Plus).

[2] = biological target: T1, EphA2-Ephrin A1-Fc-EA2 complex (Homo sapiens, UniProt P29317); assay: Displacement of labeled EA2 from EphA2-Ephrin A1-Fc complex by unlabeled competitor; assay type: binding; details: biotinylated EA2 10 μg/ml, 30 min
T1 construct: consisting of the extracellular domain of EphA2 linked to human IgG1 constant region
Procedure: FIGS. 18A-18B: EphA2 EA2 epitope is distinct from Eph099B-233.152 epitope and ligand binding site. (A) EphA2-Fc was incubated with and bound to immobilized Ephrin A1-Fc. Labeled Ephrin A1-Fc (black), EA2 (white) or Eph099B-233.152 (grey) was incubated with the EphA2-Ephrin A1-Fc complex and amount of binding was measured. (B) EphA2-Fc was incubated with and bound to immobilized Ephrin A1-Fc. Labeled EA2 was then incubated with the EphA2-Ephrin A1 complex. Unlabeled competitor was incubated with EphA2-Ephrin A1-EA2 complex in the indicated amount. Competitors were Ephrin A1-Fc (black), EA2 (white) or Eph099B-233.152 (grey).
The EphA2-Ephrin A1-Fc complex was prepared as described above. Biotinylated EA2 (10 μg/ml) was then incubated with the complex for 30 min. Unlabeled competitor was incubated with EphA2-Ephrin A1-Fc-EA2 complex in the indicated amount. Unlabeled EA2 could displace the labeled EA2 at concentrations of 100 ng/ml or greater.

[3] = system: MCF-7^EphA2 cells; assay: Soft agar colonization of MCF-7^EphA2 cells; assay type: cell-based, human; details: EA2 10 μg/ml, tamoxifen 1 μM
Procedure: FIGS. 11A-11B: EphA2 overexpression decreases tamoxifen sensitivity. (A) 1×10^5 MCF-7 or MCF-7^EphA2 cells were suspended in soft agar in the presence of 1 μM tamoxifen (TAM) and or 1 μM 17β-estradiol and colony formation was evaluated microscopically after 14 days. (B) MCF-7 (circles) or MCF-7^EphA2 cells (squares) were implanted into the mammary fatpad (n=15 mice per group) in the presence of supplemental estrogen. Tamoxifen treatment was initiated 17 days post-implantation. Tumor volume of tamoxifen treated (black circles and squares) and saline treated (white circles and squares) animals was measured at the indicated time.
FIGS. 13A-13C: EphA2 agonistic antibody EA2 decreases malignant growth. MCF-7^EPhA2 cells were incubated in the presence of 3 μg/ml of EA2 for the time indicated prior to sample extraction and western blot analyses with an EphA2-specific antibody (D7). […]
EphA2 overexpression increased malignant growth (FIGS. 8A-8B). […] Colony formation in soft agar was performed as previously described (Zelinski et al., 2001, Cancer Res. 61:2301-6) and scored microscopically, defining clusters of at least three cells as a positive. […] Error bars represent the standard error of the mean of at least three different experiments as determined using Microsoft Excel software.
Sensitivity of MCF-7^EphA2 cells to tamoxifen was measured. […]

T1 sequence (P29317 24-537 limits assumed): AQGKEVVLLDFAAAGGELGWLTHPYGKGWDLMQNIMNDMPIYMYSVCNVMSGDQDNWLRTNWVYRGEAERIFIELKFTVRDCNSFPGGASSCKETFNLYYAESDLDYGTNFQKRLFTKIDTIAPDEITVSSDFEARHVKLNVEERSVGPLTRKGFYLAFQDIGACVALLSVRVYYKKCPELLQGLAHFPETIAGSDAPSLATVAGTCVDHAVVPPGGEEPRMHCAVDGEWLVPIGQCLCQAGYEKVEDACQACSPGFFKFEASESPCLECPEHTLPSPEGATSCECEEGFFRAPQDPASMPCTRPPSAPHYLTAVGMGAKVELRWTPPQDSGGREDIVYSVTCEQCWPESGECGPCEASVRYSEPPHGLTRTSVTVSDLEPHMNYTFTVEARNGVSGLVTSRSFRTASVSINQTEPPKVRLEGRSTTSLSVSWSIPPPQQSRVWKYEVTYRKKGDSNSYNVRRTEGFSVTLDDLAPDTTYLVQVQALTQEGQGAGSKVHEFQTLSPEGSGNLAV
T1 sequence (P20827 19-182 partner limits assumed): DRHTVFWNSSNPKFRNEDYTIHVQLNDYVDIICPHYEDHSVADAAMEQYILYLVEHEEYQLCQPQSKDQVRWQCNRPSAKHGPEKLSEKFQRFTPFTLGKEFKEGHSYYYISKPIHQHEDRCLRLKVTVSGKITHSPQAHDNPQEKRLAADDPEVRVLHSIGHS

B1: EA2: EphA2 agonistic monoclonal antibody; ATCC deposit no. PTA-4380; co-pending application Ser. No. 10/436,783; VL SEQ ID NO:33, VH SEQ ID NO:37 (antibody, listed as Homo Sapiens, V domains shown)
VH: DVKLVESGGGLVKPGGSLKLSCAASGFTFSSYTMSWVRQTPEKRLEWVATISSGGTYTYYPDSVKGRFTISRDNAKNTLYLQMSSLKSEDTAMYYCTREAIFTYWGQGTLVTVSA
VL: DIKMTQSPSSMYASLGERVTITCKASQDINNYLSWFQQKPGKSPKTLIYRANRLVDGVPSRFSGSGSGQDYSLTISSLEYEDMGIYYCLKYDEFPYTFGGGTKLEIK
Effect of EGTA treatment on EA2 binding, transformed cells [1]: did not affect | Concentration of unlabeled competitor displacing labeled EA2 [2]: ≥ 100 ng/mL | Sensitivity of MCF-7^EphA2 cells to tamoxifen in soft agar [3]: increased the sensitivity of MCF-7^EphA2 cells to tamoxifen | Inhibition / decrease of soft agar colonization, MCF-7^EphA2 cells [3]: 19%
